Experimental data from the supplement of paper PMC9876800.

Test system: peptide library, one residue held at a place counted from the S/T acceptor
Assay: relative phosphorylation of the sub-library (ratio to the mean residue at this position); higher = residue favoured
Settings: human
In short: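 Spots on streptavidin membranes were phosphorimaged and quantified by densitometry to measure phosphorylation of biotinylated degenerate peptide sub-libraries by purified recombinant kinases, human or orthologue constructs. The reactions ran in 384-well plates for 90 min under kinase-specific conditions, with peptides at 50 μM and 50 μM ATP spiked with γ-32P-ATP. Relative sub-library phosphorylation is the ratio to the mean residue at that position.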

Chain of CDK14, construct: Full length (O94921 whole entry, looked up): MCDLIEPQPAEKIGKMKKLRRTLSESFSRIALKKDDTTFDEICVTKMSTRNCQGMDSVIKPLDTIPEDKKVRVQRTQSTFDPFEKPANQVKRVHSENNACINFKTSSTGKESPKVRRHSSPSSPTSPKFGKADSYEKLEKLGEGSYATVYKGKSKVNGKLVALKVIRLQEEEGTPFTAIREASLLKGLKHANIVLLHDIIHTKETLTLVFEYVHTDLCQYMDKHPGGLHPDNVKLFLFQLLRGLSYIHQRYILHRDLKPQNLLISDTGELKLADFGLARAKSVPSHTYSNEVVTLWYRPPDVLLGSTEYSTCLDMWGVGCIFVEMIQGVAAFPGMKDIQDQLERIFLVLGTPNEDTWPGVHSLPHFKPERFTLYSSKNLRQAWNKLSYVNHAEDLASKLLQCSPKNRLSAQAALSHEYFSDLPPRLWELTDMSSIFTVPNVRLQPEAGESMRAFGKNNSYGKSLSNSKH
Chain of SNRK, construct: aa1-505 (Q9NRH2 1-505, looked up): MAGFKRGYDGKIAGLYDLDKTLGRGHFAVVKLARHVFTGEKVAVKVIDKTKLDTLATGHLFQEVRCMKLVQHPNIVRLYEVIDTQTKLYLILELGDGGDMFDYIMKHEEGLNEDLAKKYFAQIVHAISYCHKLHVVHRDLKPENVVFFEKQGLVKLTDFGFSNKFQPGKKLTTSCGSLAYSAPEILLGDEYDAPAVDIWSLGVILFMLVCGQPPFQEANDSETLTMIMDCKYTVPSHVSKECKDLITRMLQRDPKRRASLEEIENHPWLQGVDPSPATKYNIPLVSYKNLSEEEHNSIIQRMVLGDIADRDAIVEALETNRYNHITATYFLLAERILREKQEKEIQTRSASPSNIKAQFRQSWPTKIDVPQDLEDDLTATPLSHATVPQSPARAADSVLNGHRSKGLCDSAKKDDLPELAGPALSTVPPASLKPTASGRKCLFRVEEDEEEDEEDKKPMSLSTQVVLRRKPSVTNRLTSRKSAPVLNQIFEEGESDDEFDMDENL
Chain of TAOK2, construct: aa1-350 (Q9UL54 1-350, looked up): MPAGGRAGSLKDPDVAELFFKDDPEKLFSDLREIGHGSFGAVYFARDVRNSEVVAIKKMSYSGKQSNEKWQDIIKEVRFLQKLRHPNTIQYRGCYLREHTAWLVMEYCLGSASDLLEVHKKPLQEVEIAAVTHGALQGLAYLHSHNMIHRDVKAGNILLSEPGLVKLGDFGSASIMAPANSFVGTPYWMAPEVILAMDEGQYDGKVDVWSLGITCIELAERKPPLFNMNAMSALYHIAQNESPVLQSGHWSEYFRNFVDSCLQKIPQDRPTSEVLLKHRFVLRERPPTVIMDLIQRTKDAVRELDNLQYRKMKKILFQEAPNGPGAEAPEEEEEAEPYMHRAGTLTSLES

CDK14, construct: Full length (from UniProt O94921)
relative phosphorylation
Settings	at +1	at +2	at +3	at +4	at -1	at -2	at -3	at -4	at -5
A fixed	0.252	0.535	0.827	0.626	0.896	0.722	0.989	0.958	0.859
D fixed	0.129	0.365	0.343	0.472	0.376	0.251	0.328	0.625	0.582
E fixed	0.123	0.292	0.266	0.344	0.366	0.258	0.438	0.592	0.521
F fixed	0.298	0.793	1.44	0.708	0.704	0.777	0.768	0.725	0.798
G fixed	1.29	0.619	0.785	1.64	2.02	0.774	1.29	1.08	1.13
H fixed	0.294	1.19	0.793	1.08	0.835	0.972	0.974	0.978	1.34
I fixed	0.332	1.25	1.03	0.677	0.324	0.749	0.879	1.39	1.22
K fixed	0.38	2	0.937	1.84	1.44	1.14	1.09	1.59	1.78
L fixed	0.392	1.39	2.38	0.74	1.04	1.29	0.839	1.2	1.23
M fixed	0.345	1.1	1.97	0.88	1.36	1.11	0.875	0.942	1.06
N fixed	0.247	0.858	0.6	1.04	0.873	0.701	0.75	1.19	1.15
P fixed	11.4	0.665	1.28	1.07	1.77	2.49	1.43	1.01	0.957
Q fixed	0.286	0.854	0.772	0.935	0.863	0.794	0.756	0.843	0.822
R fixed	0.377	2.41	1.02	2.69	1.92	2.6	3	1.31	1.17
V fixed	0.305	1.05	0.764	0.582	0.421	0.724	0.753	0.717	0.71
W fixed	0.301	0.713	1.09	0.962	0.802	0.995	0.955	1.06	0.823
Y fixed	0.257	0.92	0.698	0.714	0.984	0.648	0.884	0.78	0.865
pThr fixed	0.511	0.842	0.801	0.524	0.457	0.755	0.839	0.879	0.885
pTyr fixed	0.609	0.486	0.841	0.387	0.427	0.42	0.605	0.531	0.697

TAOK2, construct: aa1-350 (from UniProt Q9UL54)
relative phosphorylation
Settings	at +1	at +2	at +3	at +4	at -1	at -2	at -3	at -4	at -5
A fixed	0.607	0.791	0.808	0.75	0.832	0.94	0.901	0.992	1.03
D fixed	0.505	0.606	0.532	0.619	0.726	0.706	0.741	0.931	1.01
E fixed	0.496	0.483	0.501	0.593	0.566	0.621	0.725	0.92	0.888
F fixed	1.23	0.651	0.845	0.887	0.938	1.4	0.806	0.907	0.896
G fixed	0.606	0.697	0.953	0.937	1.45	1.13	1.34	1.14	1.13
H fixed	0.855	0.993	0.924	1.04	1.28	1.01	1.06	1.08	1.06
I fixed	1.47	0.723	0.761	0.763	0.561	0.703	0.642	0.746	0.73
K fixed	0.753	2.65	2	1.72	1.11	0.981	2.14	1.46	1.45
L fixed	1.49	0.644	0.807	0.778	1.1	0.709	0.672	0.781	0.767
M fixed	1.49	0.734	0.735	0.764	1.26	0.978	0.828	0.857	0.827
N fixed	0.64	1.24	0.876	0.845	1.16	0.972	0.944	1.1	1.05
P fixed	0.589	0.76	0.906	0.834	0.667	0.876	0.777	0.965	0.969
Q fixed	0.727	0.884	0.838	0.949	0.851	0.896	1	1.01	0.977
R fixed	0.778	2.81	2.84	2.19	1.27	1.1	1.59	1.28	1.38
V fixed	1.09	0.812	0.753	0.738	0.583	0.731	0.672	0.818	0.889
W fixed	2.32	0.69	1.04	1.35	1.1	1.08	1.02	1	0.986
Y fixed	1.35	0.835	0.873	1.24	1.54	2.16	1.13	1.01	0.96
pThr fixed	0.639	0.557	0.614	0.55	0.605	0.742	0.817	0.964	1
pTyr fixed	0.577	0.54	0.626	0.609	1.27	0.822	0.909	1.03	1.1

SNRK, construct: aa1-505 (from UniProt Q9NRH2)
relative phosphorylation
Settings	at +1	at +2	at +3	at +4	at -1	at -2	at -3	at -4	at -5
A fixed	0.817	0.313	0.573	0.725	0.876	1.27	0.886	1.12	1.07
D fixed	0.421	0.215	0.614	0.532	0.73	0.301	0.279	0.572	0.568
E fixed	0.544	0.156	0.303	0.474	0.899	0.344	0.267	0.65	0.514
F fixed	1.81	3.56	2.34	1.08	0.944	1.31	0.898	0.944	1.27
G fixed	0.424	0.196	0.608	0.721	0.813	0.721	0.617	1.06	0.957
H fixed	0.863	0.998	1.16	0.969	1.1	1.47	1.04	1.15	1.1
I fixed	0.829	0.912	0.61	1.16	0.811	0.587	0.631	0.861	0.921
K fixed	1.09	0.431	0.691	1	1.06	1.12	1.99	1.42	1.31
L fixed	1.05	1.36	0.88	1.78	1.3	0.616	0.9	0.94	0.815
M fixed	1.4	1.34	0.934	1.18	1.31	0.91	0.979	1.03	0.937
N fixed	0.916	0.5	1.11	0.965	0.864	1.11	0.654	0.824	0.883
P fixed	0.171	0.276	0.354	1.02	0.823	0.426	0.613	0.748	0.807
Q fixed	1.35	0.567	0.661	1.16	1.08	1.14	0.908	0.942	0.89
R fixed	1.63	0.865	1.1	1.06	1.45	2.44	4.04	1.5	1.69
V fixed	0.936	0.585	0.531	0.924	0.93	0.78	0.498	0.911	0.996
W fixed	1.27	2.4	2.19	1.29	0.964	1.11	0.952	1.18	1.23
Y fixed	1.48	2.32	2.35	0.952	1.05	1.34	0.85	1.15	1.05
pThr fixed	0.702	0.42	0.371	0.477	0.913	0.613	0.526	0.7	0.726
pTyr fixed	0.777	0.522	0.548	0.425	1.03	0.512	0.522	0.735	0.73
